Assay results as given in paper PMC9388122.

Experiments:
[1] = target: (H3-H4)2 tetramer (recombinant Xenopus laevis histones) (X. laevis) (UniProt P84233); experiment: single-molecule photobleaching steps (optical tweezers with fluorescence detection); H2A-Cy3 nucleosomes ligated to 2.5-kb DNA handles, at low tension
[2] = target: (H3-H4)2 tetramer (recombinant Xenopus laevis histones) (X. laevis) (UniProt P84233); experiment: single-molecule photobleaching steps (optical tweezers with fluorescence detection); H2A-Cy3 hexasomes ligated to 2.5-kb DNA handles

stoichiometry N [1]: 2 | stoichiometry N [2]: 1
Substance: H2A-Cy3-H2B heterodimer (H2A labelled with one Cy3 at the C-terminal tail by sortase) (from UniProt P06897 1-130; P02281 1-126) (complex)
